Assay results: patent US12280159B2, “Therapeutic protein-based nanoparticles for treating cancer” (THE REGENTS OF THE UNIVERSITY OF MICHIGAN, priority 2020, dated 2025)

Experiments:
[1] = test system: draining lymph nodes (F4/80+ macrophages, B220+ B cells, CD11c+ DCs); set-up: species or system C57BL/6 mice; settings: mouse, in vivo, sc
Experimental: OVA pNPs delivery to lymph nodes. Next, the pNPs targeting of the draining lymph nodes using AlexaFluor 647-labeled pNPs was evaluated. OVA pNPs of varying PEG/OVA ratio (10, 30, 50%) and size (200 nm, 500 nm) were injected subcutaneously at the tail base of C57BL/6 mice (10 μg OVA/100 μL dose). The inguinal draining lymph nodes were harvested 48 hours after injection. Single-cell suspensions from the draining lymph nodes were prepared and pNPs uptake among the different populations of antigen-presenting cells were analyzed (dendritic cells, macrophages and B cells) using flow cytometry by comparing the MFI values of the cells. […] In the past, many different particle sizes have been studied with respect to their lymphatic drainage. It has been shown that particles exceeding 500 nm can be trapped at the injection site. Nanoparticles smaller than 10 nm, or soluble antigen, diffuse into the lymphatic system easily, but their retention time in the lymph nodes is too short to provide sustained antigen delivery. […] For smaller pNPs sizes, improved uptake is observed for pNP with lower PEG/OVA ratio.

B16F10-OVA melanoma = assay: Therapeutic efficacy in murine B16F10-OVA melanoma model; format: in vivo, C57BL/6 mice; settings: treated days 7 and 14 with CpG
Experimental: Therapeutic efficacy of pNPs in a model of melanoma. Encouraged by the fact that OVA pNPs with 10% PEG/OVA ratio result in increased OT-I CD8+ cell proliferation in vitro, improved uptake by APCs (both in vitro and in vivo), and enhanced humoral immune response in vivo, a murine model of B16F10-OVA melanoma was employed to evaluate the therapeutic efficacy of pNPs with a PEG/OVA ratio of 10% compared to solute OVA. Tumor-bearing mice were treated with 10% PEG/OVA pNPs or solute OVA (10 μg OVA/100 μL dose), co-administered with CpG (15 μg/dose). Following the regimen shown in FIG. 9A, C57BL/6 mice (10 mice/treatment group) were inoculated with 1×10^5 B16F10-OVA cells in the SC flank on day 0. Treatments with either 10% PEG/OVA pNPs or solute OVA were initiated on day 7 after tumor inoculation. A second treatment was given on day 14. Mice were euthanized after their tumors reached 15 mm in any dimension. […] More than 50% of mice treated with solute OVA were euthanized due to large tumor burden on day 20, and 100% of the mice were euthanized on day 21.

B1: ovalbumin (protein, UniProt P01012 2-386, looked up)
Ovalbumin: GSIGAASMEFCFDVFKELKVHHANENIFYCPIAIMSALAMVYLGAKDSTRTQINKVVRFDKLPGFGDSIEAQCGTSVNVHSSLRDILNQITKPNDVYSFSLASRLYAEERYPILPEYLQCVKELYRGGLEPINFQTAADQARELINSWVESQTNGIIRNVLQPSSVDSQTAMVLVNAIVFKGLWEKAFKDEDTQAMPFRVTEQESKPVQMMYQIGLFRVASMASEKMKILELPFASGTMSMLVLLPDEVSGLEQLESIINFEKLTEWTSSNVMEERKIKVYLPRMKMEEKYNLTSVLMAMGITDVFSSSANLSGISSAESLKISQAVHAAHAEINEAGREVVGSAEAGVDAASVSEEFRADHPFLFCIKHIATNAVLFFGRCVSP
notes: soluble ovalbumin antigen used as control
MFI of lymph node cells / delivery to draining lymph nodes [1]: not delivered to the lymph nodes efficiently
mice euthanized due to large tumor burden (B16F10-OVA melanoma; day 20): More than 50%
mice euthanized (B16F10-OVA melanoma; day 21): 100%
animal survival (B16F10-OVA melanoma): slightly better survival
